The record followed here is article PMC8167360.

The experiment has as its target Mac2 (SUD-N, macrodomain II) of SARS-CoV Nsp3, purified (SARS-CoV (strain Frankfurt)). The experiment can be described thus: ITC; […] ([…]) […] ([…]) […]; 25°C; VP-ITC; 20 mM Tris–HCl pH 8.5, 150 mM NaCl. A general note: In ITC the heat of successive injections is recorded.

In general, Kd refers to the constant that tells how readily two partners part at equilibrium. Read a low Kd as a tighter complex. As usually defined, the stoichiometry N is the number of molecules, sites or subunits per partner or assembly.

B1: middle domain of human Paip1 (Paip1M), purified (domain or fragment)
chain: GSHMASMTGGQQMGRGSTLSEYVQDFLNHLTEQPGSFETEIEQFAETLNGCVTTDDALQELVELIYQQATSIPNFSYMGARLCNYLSHHLTISPQSGNFRQLLLQRCRTEYEVKDQAAKGDEVTRKRFHAFVLFLGELYLNLEIKGTNGQVTRADILQVGLRELLNALFSNPMDDNLICAVKLLKLTGSVLEDAWKEKGKMDMEEIIQRIENVVLDANCSRDVKQMLLKLVELRSS
B1 displayed a Kd of 15.5 µM, a dH of -6.78 kcal/mol and a stoichiometry N of 0.94.
